The test system of assay [1] is primary human HSCs. Briefly: α-SMA Assay in TGF-β-stimulated hepatic stellate cells. The following applies: 24 h, read-out: α-SMA Assay EC50. The assay is classed as cell-based. The method, then:
For quantification of α-SMA protein expression, HSC's were plated at a density of 10,000 cells/well in collagen coated 96-well plates (BD-Biosystems). […] HSCs were fixed in 4% PFA, permeabilized in 0.02% Triton-X-100, blocked for 30 min. and stained with an anti-α-SMA specific antibody (Sigma) and a flourescently labeled secondary antibody (Invitrogen). α-SMA expression was quantified on a fluorescent plate reader.

A further assay relates to HSCs. Kind of assay: Quantitative RT-PCR of TGF-β1-induced gene transcription in HSCs. It is filed as cell-based, human. Particulars: pre-treated HSCs, TGF-β1 5 ng/ml for 48 hrs. The method, then: For gene expression assays, RNA was isolated using commercially available kit (Qiagen Midikit), converted to cDNA (Retroscript Kit, Ambion) and tested for expression of genes involved in fibrosis with human probes on ABI 7300 (Applied Biosystems). All assays were performed in triplicate.
Quantitative RT-PCR was used to determine the effects of compounds to inhibit TGF-β1-induced gene transcription of αSMA, COL1α1, […], and lumican.

The test system of assay [2] is primary human HSCs. Briefly: Collagen Assay (Sircol) in TGF-β-stimulated hepatic stellate cells. Particulars: read-out: Collagen Assay EC50.
Experimental: Collagen synthesis, α-SMA (smooth muscle actin) expression, and changes in transcript expression were measured in response to stimulation from ROS (reactive oxygen species) and TGF-β.
Commercially available primary human HSCs (Sciencell) were plated at a density of 250,000 cells/well on 12-well plates (Corning). HSCs were co-stimulated with 5 ng/mL TGF-β+/− ASK1 inhibitor compounds. Collagen production was assessed by Sircol Assay where extracellular collagen was digested with pepsin, followed by acid extraction, neutralization, and colometric quantification using the Sircol assay kit according to the manufacturer's protocols (BioColor).
The next assay has as its system male C57BL/6 mice. Briefly: Interventional NASH model (treatment from day 240 of high fat, high cholesterol, high sugar diet). It is filed as in vivo. The method, then: Liver homogenate (1.5 mL) was transferred to 1.5 mL Eppindorf tubes and centrifuged at 14,000 rpm for 10 min. Supernate was transferred to 96-deep well plate and diluted 1:1 with 4 M HCl. HYP levels were quantified using a commercially available hydroxyproline assay (Quickzyme Biosciences).
Commercially available high fat, high cholesterol, high sugar diet was administered continuously to 12 week old male C57BL/6 mice for 320 days. […] Animal cohorts (n=15) were sacrificed after 80 days of treatment. Collagen synthesis and hydroxyproline (HYP) were measured using D2O labeling. Second harmonic imaging was used to quantitate collagen morphometry.
Commercially available high fat, high cholesterol, high sugar diet was administered continuously to 12 week old male C57BL/6 mice for 320 days. […] At 80 days of treatment, collagen synthesis and HYP levels in each group (n=15) were determined using D2O labeling. […] Liver homogenate (1.5 mL) was centrifuged at 14,000×rpm for 10 min and the resulting supernate was d diluted 1:1 with 4 M HCl. HYP levels were quantified using a commercially available hydroxyproline assay (Quickzyme Biosciences).
In addition, immunohistochemistry and immunoblot analysis were used to characterize the levels of phospho-p38 (p-p38), phospho-JNK1 (p-JNK1), and phospho-MKK4 (p-MKK4) proteins.

The test system of another assay is Mdr2^−/− BALB/c. Kind of assay: Interventional PSC model. It is filed as in vivo, mice. The method, then:
Control groups received treatment with either vehicle or an unrelated isotype-matched control IgG (i.e. a murine IgG1). Portal venous pressure
(PVP) was measured invasively by direct cannulation of the portal vein with a micro-tip pressure monitor at the end of the study. Liver fibrosis was evaluated by histology, biochemical determination of collagen and analysis of profibrogenic gene expression by qRT-PCR.

The test system of assay [3] is TAA-induced liver fibrosis. Kind of assay: TAA-induced liver fibrosis. The following applies: in vivo.

As usually defined, the EC50 is the midpoint of the concentration-response curve.

With `Cc1cc(F)c(C(=O)Nc2cccc(-c3nncn3C(C)C)n2)cc1-n1cnc(C2CC2)c1` [Compound 3], the EC50 with primary human HSCs [1] was 18.9 nM; with primary human HSCs [2], 11.6 nM. Besides, the “TGF-β1-induced responses in RNA levels of αSMA, COL1α1, TIMP1, and lumican” value with HSCs is “blocked or inhibited”.

B1: AB0023: murine anti-LOXL2 antibody, heavy chain variable region SEQ ID NO: 15, light chain variable region SEQ ID NO: 16 (antibody, V domains shown)
VH: MEWSRVFIFLLSVTAGVHSQVQLQQSGAELVRPGTSVKVSCKASGYAFTYYLIEWVKQRPGQGLEWIGVINPGSGGTNYNEKFKGKATLTADKSSSTAYMQLSSLTSDDSAVYFCARNWMNFDYWGQGTTLTVSS
VL: MRCLAEFLGLLVLWIPGAIGDIVMTQAAPSVSVTPGESVSISCRSSKSLLHSNGNTYLYWFLQRPGQSPQFLIYRMSNLASGVPDRFSGSGSGTAFTLRISRVEAEDVGVYYCMQHLEYPYTFGGGTKLEIK
modifications: anti-LOXL2 antibody AB0023 heavy chain variable region; anti-LOXL2 antibody AB0023 light chain variable region
As to B1, the “synthesis rates of extracellular matrix proteins (Col1a1, Col1a3, and Col1a5)” value with male C57BL/6 mice (Example 3) was “affected”. Further, in the assay on male C57BL/6 mice (additional studies), the “blood glucose and insulin levels” value is on record as “did not affect”. For the same molecule, the relative hydroxyproline levels result in the assay with male C57BL/6 mice (additional studies, FIG. 30) is given as “did not result in a decrease”. Moreover, the “reduction of hepatic collagen deposition (hydroxyproline levels)” value with Mdr2^−/− BALB/c (6 weeks treatment, vs control group) is recorded as 38%. In the assay with Mdr2^−/− BALB/c (end of study, control 10.1±0.2), the “portal venous pressure (PVP)” value was determined as 8.36±0.23 mmHg. Further, in the assay with Mdr2^−/− BALB/c (mouse, in vivo), the “fibrosis progression in Mdr2^−/− mice” value is reported as “blocked”. Besides, the TAA-induced fibrosis progression result in assay [3] is listed as “blocked”.

(Values after patent US20150342943A1, “METHODS OF TREATING LIVER DISEASE” (Gilead Sciences, Inc., priority 2014, published 2015).)
